T1: human CD22-ECD-His protein (human, UniProt P20273 20-687)
T1 construct: Made in house in HEK293E; also called hCD22-ECD-His; recombinant human CD22-ECD His protein; not shown: His tag
T1 sequence: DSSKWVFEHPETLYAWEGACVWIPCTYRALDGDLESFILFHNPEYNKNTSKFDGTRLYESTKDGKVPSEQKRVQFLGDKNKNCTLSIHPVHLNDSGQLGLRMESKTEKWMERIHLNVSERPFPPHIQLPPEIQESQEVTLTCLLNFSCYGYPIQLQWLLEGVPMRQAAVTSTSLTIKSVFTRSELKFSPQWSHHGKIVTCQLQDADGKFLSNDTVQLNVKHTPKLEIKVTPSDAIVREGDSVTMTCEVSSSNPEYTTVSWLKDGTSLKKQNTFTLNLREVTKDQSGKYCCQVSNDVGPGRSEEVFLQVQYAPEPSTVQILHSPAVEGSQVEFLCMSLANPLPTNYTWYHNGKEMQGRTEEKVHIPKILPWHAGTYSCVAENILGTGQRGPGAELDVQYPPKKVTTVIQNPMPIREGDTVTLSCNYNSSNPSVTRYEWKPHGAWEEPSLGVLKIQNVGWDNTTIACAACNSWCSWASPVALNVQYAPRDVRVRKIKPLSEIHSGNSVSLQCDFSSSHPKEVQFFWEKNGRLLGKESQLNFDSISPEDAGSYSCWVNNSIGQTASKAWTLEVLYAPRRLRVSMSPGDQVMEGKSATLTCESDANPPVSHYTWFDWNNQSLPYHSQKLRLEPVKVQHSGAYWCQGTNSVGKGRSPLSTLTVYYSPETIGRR

T2: murine CD22 protein (ACROBiosystems, SI2-M52Ha) (murine, UniProt P35329 22-708)
T2 construct: extracellular domain; also called murine CD22-ECD; murine CD22-ECD-His
T2 sequence (looked up): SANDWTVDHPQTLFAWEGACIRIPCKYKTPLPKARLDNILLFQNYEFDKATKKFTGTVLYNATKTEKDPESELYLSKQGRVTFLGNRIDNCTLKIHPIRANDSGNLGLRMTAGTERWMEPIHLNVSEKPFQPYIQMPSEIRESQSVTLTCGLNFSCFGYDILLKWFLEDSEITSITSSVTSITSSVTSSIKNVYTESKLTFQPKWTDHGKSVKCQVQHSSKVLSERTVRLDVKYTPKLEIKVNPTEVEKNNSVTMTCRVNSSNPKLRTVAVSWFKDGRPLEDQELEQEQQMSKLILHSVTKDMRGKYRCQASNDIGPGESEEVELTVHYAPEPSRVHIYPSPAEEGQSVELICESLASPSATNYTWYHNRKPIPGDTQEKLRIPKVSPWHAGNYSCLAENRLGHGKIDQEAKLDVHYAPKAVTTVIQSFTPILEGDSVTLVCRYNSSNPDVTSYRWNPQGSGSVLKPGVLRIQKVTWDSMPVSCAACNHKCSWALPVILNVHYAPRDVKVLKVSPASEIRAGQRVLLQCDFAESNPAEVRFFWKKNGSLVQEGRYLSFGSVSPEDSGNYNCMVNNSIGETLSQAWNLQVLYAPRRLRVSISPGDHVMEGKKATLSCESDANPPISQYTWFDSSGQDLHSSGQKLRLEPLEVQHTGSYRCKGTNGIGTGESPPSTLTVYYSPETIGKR

T3: human CD22 domain5-7-His (human, UniProt P20273 414-687)
T3 construct: also called hCD22 domain5-7-His; not shown: His tag
T3 sequence: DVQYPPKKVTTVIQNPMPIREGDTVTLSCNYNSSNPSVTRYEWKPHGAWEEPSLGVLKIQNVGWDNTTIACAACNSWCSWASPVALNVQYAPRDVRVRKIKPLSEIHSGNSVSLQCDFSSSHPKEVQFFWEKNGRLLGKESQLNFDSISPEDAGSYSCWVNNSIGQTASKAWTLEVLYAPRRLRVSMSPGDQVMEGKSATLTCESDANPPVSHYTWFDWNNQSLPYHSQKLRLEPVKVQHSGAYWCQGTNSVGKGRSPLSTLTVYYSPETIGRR


How the values were obtained:
[1] = target: T1, human CD22-ECD-His protein; experiment: ELISA, Ab 0.01 nM
Description: (§1) In order to detect the binding activity of CD22 human-murine chimeric antibodies to CD22 protein, the purified human CD22-ECD-His protein obtained in Example 2 was diluted with PBS to a final concentration of 2 μg/mL, and then added to 96-well ELISA plate at 100 μl/well. The plate was sealed with plastic film and incubated overnight at 4° C., the plate was washed 2 times with PBS the next day, and then a blocking solution [PBS+2% (w/w) BSA] was added for blocking at room temperature for 2 hours. […] After incubation at 37° C. for 2 hours, the plate was washed 3 times with PBS. HRP (horseradish peroxidase)-labeled secondary antibody (purchased from Sigma, catalog number: A0170) was added, and incubated at 37° C. for 2 hours, and the plate was washed 5 times with PBS. TMB substrate was added at 50 μl/well, and incubated at room temperature for 30 minutes, then a stop solution (1.0 N HCl) was added at 50 μl/well.

[2] = target: T1, human CD22-ECD-His protein; experiment: ELISA, Ab 0.001 nM
Description: as §1

[3] = target: T1, human CD22-ECD-His protein; experiment: ELISA, Ab 0.0001 nM
Description: as §1

[4] = target: T1, human CD22-ECD-His protein; experiment: ELISA, Ab 100.00 nM
Description: as §1

[5] = target: T2, murine CD22 protein (ACROBiosystems, …); experiment: ELISA, murine CD22-ECD-His coated
Description: as §1
In order to detect the species cross-binding activity of the chimeric antibodies, an ELISA plate was coated with commercial murine CD22 protein (ACROBiosystems, catalog number: SI2-M52Ha) and monkey CD22 protein (ACROBiosystems, catalog number: SI2-R52Ha), respectively, and the ELISA detection was performed according to the method in Example 5.1.

[6] = target: T1, human CD22-ECD-His protein; experiment: ELISA, Ab 0.00001 nM
Description: as §1

human CD22 domain5-7-His = target: T3, human CD22 domain5-7-His; experiment: ELISA, human CD22 domain5-7-His coated
[7] = target: T1, human CD22-ECD-His protein; experiment: ELISA, human CD22-ECD-His coated
Description: as §1

[8] = target: T1, human CD22-ECD-His protein; experiment: ELISA, Ab 10.00 nM
Description: as §1

[9] = target: T1, human CD22-ECD-His protein; experiment: ELISA, Ab 0.10 nM
Description: as §1

OD450 [1] [OD450]	OD450 [2] [OD450]	OD450 [3] [OD450]	OD450 [4] [OD450]	binding result [5]	OD450 [6] [OD450]	binding result (human CD22 domain5-7-His)	EC50 (read off the curve) [7] [nM]	OD450 [8] [OD450]	OD450 [9] [OD450]	Binder
2.34	1.22	0.43	2.97	no binding (tested: 100 nM)	0.25	no binding (tested: 100 nM)	~0.02	2.63	2.61	F1.161.7 (antibody, human IgG1, kappa, V domains shown, Human-murine chimeric IgG1, kappa) VH: QVQLQQPGAELVKPGASVKMSCKASGYTFTSYWISWVKQRPGQGLEWIGDIYPGTGSSNYNEKFKSKATLTVDTSSSTAYMQLSSLTSEDSAVYYCARLKFEGIGYWGQGTTLTVSS VL: QIVLTQSPAIMSASLGEEITLTCSASSSVSYMHWFQQKSGTSPKLLIYSISNLASGVPSRFSGSGSGTFYSLTISSVEAEDAADYYCHQWSSYPWTFGGGTKLEIKR
1.6	0.69	0.33	2.11	no binding (tested: 100 nM)	0.23	no binding (tested: 100 nM)	~0.03	1.92	1.84	F2.121.9 (antibody, human IgG1, lambda, V domains shown, Human-murine chimeric IgG1, lambda) VH: EVQLVESGGGLVKPGGSLKLSCAASGFTFSDYVMSWIRQTPEKRLEWVATISDAGSYTFYPDNLKGRFTISRDNAKNNLYLQMNHLTSEDTAFYYCAIIYFGNYGGYWGQGTLVTVSV VL: QAVVTQESALTTSPGGTVVLTCRSNTGAVTTSNYANWVQEKPDHLFTGLIGGTSNRAPGVPVRFSGSLIGDKAALTITGAQTEDDAMYFCALWYSTHWVFGGGTKLTVLG
2.16	1.07	0.37	2.93	no binding (tested: 100 nM)	0.24	no binding (tested: 100 nM)	~0.02	2.67	2.79	F1.62.10 (antibody, human IgG1, kappa, V domains shown, Human-murine chimeric IgG1, kappa) VH: QVQLQQSGPELVKPGASVKISCKASGYEFSSIWMNWVKQRPGEGLEWIGRIFPGDGEINYNEKFKGKATLTADRSSTTAYMQLSSLTSEDSAVYFCAGWRIYYGTYGAMDYWGQGTSVTVSS VL: DIQMTQITSSLSASLGDRVTISCRASQDIGNYLNWYQQKPDGTVKLLIYYTSRLHSGVPSRFSGSGSRTDYSLTISNLQQEDIATYFCQQGNTLPWTFGGGTKLEIKR

Reference: patent US20240084003A1 (SIMCERE ZAIMING PHARMACEUTICAL, published 2024)
